Results on two molecules are retold here after patent US20260125455A1 (CLEVELAND CLINIC FOUNDATION, published 2026).

Test [1] addresses T1, human complement protein C6 (human, UniProt P13671 22-934).
T1 construct: also called human C6; C6 antigen
As to the kind of experiment: SPR (Biacore 8K), IgG on protein G chip, C6 0.31-20 nM 2-fold series, 1:1 fit. Here is the method:
(§1) The kinetics of C6 binding was compared for the purified chimeric and lead humanized C601 using surface plasmon resonance (SPR, Biacore 8K). IgG were captured on a protein G sensor chip and binding of C6 measured using a three-fold concentration series of C6 from 0.03 nM-25 nM (FIG. 5). In a second experiment, a two-fold concentration series from 0.31 nM-20 nM C6 was used (FIG. 6). For all antibodies, binding of C6 occurred in a concentration-dependent manner and data could be fitted using a 1:1 model to calculate the association rate (kₒₙ), dissociation rates (kd) and affinity constant (KD). The kinetic data are shown in Table 5, which indicates only small differences between the parameters determined from the two independent experiments.
(In SPR one partner is held on a chip, and binding of the other changes the refractive index at the surface.)

The target in test [2] is T1, human complement protein C6. Kind of test: ELISA, C6-coated wells. For orientation: An ELISA detects its analyte on a solid surface through an enzyme-linked reagent.
In test [3] the target is human complement protein C5 (human, UniProt P01031 19-673; P01031 678-1676). As to the kind of experiment: ELISA, C5-coated wells.
In test [4] the target is T1, human complement protein C6. As to the kind of experiment: ELISA, purified protein, anti-human IgG (Fab-specific) detection. The procedure:
The binding of the purified chimeric molecules, MoC601 HuG4K and MoC601 HuG1KFab, was also confirmed by ELISA, where the anti-human IgG (Fab-specific) secondary reagent was used. The control mouse antibody bound as previously (EC₅₀ 0.11 nM). The EC₅₀ for purified MoC601 HuG4K (0.27 nM) was similar to that obtained for the MoC601 HuG4K supernatant sample above. […] The EC₅₀ value for the Fab molecule (0.48 nM) was higher than for the antibody, which would be expected since the Fab is unable to bind bivalently to the antigen on the well. A C6-binding assay was also set up on the Octet RED384 instrument. […] However, MoC601 MoG1K could be stably loaded onto anti-mouse Fc (AMC) biosensors. Concentrations of the mouse and chimeric antibodies were adjusted to give similar levels of loading on to the AMC and […]

Test [5] has the same target. Kind of test: SPR (Biacore 8K), IgG on protein G chip, C6 0.03-25 nM 3-fold series, 1:1 fit. Here is the method: as §1
(§2) Binding ELISAs used Nunc Maxisorp 384-well plates, wells coated with C6, C5b,6 complex or C5 (Complement Technology Inc, TX) and goat anti-human IgG (Fab specific) peroxidase secondary antibodies (Sigma-Aldrich, A0293) for detection. For the thermal stability assay, IgG supernatants were diluted to their EC₈₀ concentration, incubated at different temperatures for 10 min and C6 binding measured by ELISA with the binding signal plotted against temperature. Kinetics of C6 binding were measured by capturing antibodies from supernatant samples using Protein G biosensors and performing a 20 min association step with 2.5 nM C6 and a 20 min dissociation step using the Octet RED96. Precise kinetic measurements were obtained by surface plasmon resonance (Biacore 8K, Cytiva). The IgG were captured on a protein G sensor chip. Binding of C6 measured using a three-fold concentration series of C6 from 0.03 nM-25 nM and data were fitted using a 1:1 model in two independent experiments.

Test [6] shares this target. As to the kind of experiment: SPR (Biacore 8K). The procedure: as §1, §2
Test [7] shares this target. Kind of test: SPR (Biacore 8K). Here is the method: as §1
Binding ELISAs used Nunc Maxisorp 384-well plates, wells coated with C6, C5b,6 complex or C5 (Complement Technology Inc, TX) and goat anti-human IgG (Fab specific) peroxidase secondary antibodies (Sigma-Aldrich, A0293) for detection. For the thermal stability assay, IgG supernatants were diluted to their EC₈₀ concentration, incubated at different temperatures for 10 min and C6 binding measured by ELISA with the binding signal plotted against temperature. […] Binding of C6 measured using a three-fold concentration series of C6 from 0.03 nM-25 nM and data were fitted using a 1:1 model in two independent experiments.
The source holds these as a separate data set.

For test [8] the target is unchanged. Kind of test: C6-binding ELISA, A650 nm; sample 'mouse serum' (28 days at 37 C). Here is the method:
For the serum stability assessment, samples of the purified candidate antibodies are normally incubated in mouse, human and cynomolgus serum at 37 C for 28 days and then tested in an antigen-binding ELISA. Since the anti-C6 antibodies are expected to bind to both human and cynomolgus C6 but not mouse C6, we anticipated that incubating in human or cynomolgus sera would reduce ELISA binding due to occupation of the antibody binding sites by C6 protein from the sera. Therefore, the chimeric and humanized antibodies were tested with human and mouse sera and with human sera from which the C6 protein has been depleted. […]
as §2, with “Precise kinetic measurements were obtained by surface plasmon resonance (Biacore 8K, Cytiva). The IgG were captured on a protein G sensor chip. Binding of C6 measured using a three-fold concentration series of C6 from 0.03 nM-25 nM and data were fitted using a 1:1 model in two independent experiments.” left out

The target is the same in test [9]. The description is as above. The procedure:
For the serum stability assessment, samples of the purified candidate antibodies are normally incubated in mouse, human and cynomolgus serum at 37 C for 28 days and then tested in an antigen-binding ELISA. Since the anti-C6 antibodies are expected to bind to both human and cynomolgus C6 but not mouse C6, we anticipated that incubating in human or cynomolgus sera would reduce ELISA binding due to occupation of the antibody binding sites by C6 protein from the sera. Therefore, the chimeric and humanized antibodies were tested with human and mouse sera and with human sera from which the C6 protein has been depleted. The C6-binding ELISA was then used to compare the binding abilities of the C601 antibodies that had been incubated in the 3 different sera to antibody samples that were incubated in PBS at 37 C or kept at 4 C (non-incubated).
The Uncle instrument (Unchained Labs) was used to monitor unfolding via intrinsic fluorescence and aggregation by static light scattering across a temperature gradient to obtain melting temperatures (Tₘ). […] Isoelectric points were determined by capillary isoelectric focusing using a PA800+ (Beckman Coulter). […]
This is another data set of the same source.

T1 sequence (P13671 22-934 limits assumed): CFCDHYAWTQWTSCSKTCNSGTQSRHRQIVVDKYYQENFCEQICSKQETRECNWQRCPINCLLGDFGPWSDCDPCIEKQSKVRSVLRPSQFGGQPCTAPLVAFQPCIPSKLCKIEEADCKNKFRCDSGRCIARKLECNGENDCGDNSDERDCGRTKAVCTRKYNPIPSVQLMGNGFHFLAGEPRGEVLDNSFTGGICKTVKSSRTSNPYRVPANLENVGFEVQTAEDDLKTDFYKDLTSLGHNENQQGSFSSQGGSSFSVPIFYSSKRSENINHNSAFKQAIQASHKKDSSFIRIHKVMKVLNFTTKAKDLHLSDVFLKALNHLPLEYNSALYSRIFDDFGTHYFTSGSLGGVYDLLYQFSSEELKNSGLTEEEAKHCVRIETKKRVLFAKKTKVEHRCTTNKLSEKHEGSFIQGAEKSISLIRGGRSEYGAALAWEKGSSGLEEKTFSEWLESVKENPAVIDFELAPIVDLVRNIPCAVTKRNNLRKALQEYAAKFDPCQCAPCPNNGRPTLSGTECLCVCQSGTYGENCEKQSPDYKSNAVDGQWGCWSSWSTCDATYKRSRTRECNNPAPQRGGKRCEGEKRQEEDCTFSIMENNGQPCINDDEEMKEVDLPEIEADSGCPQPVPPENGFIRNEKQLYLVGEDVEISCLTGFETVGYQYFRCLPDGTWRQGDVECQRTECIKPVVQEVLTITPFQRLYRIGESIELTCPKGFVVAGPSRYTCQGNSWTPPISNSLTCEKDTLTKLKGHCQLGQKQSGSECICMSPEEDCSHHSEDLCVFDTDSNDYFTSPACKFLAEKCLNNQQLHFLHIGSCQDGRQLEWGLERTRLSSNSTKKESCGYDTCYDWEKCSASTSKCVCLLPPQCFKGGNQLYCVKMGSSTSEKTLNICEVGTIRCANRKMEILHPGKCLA
Chain of human complement protein C5 (P01031 19-673 limits assumed, chain 1 of 2): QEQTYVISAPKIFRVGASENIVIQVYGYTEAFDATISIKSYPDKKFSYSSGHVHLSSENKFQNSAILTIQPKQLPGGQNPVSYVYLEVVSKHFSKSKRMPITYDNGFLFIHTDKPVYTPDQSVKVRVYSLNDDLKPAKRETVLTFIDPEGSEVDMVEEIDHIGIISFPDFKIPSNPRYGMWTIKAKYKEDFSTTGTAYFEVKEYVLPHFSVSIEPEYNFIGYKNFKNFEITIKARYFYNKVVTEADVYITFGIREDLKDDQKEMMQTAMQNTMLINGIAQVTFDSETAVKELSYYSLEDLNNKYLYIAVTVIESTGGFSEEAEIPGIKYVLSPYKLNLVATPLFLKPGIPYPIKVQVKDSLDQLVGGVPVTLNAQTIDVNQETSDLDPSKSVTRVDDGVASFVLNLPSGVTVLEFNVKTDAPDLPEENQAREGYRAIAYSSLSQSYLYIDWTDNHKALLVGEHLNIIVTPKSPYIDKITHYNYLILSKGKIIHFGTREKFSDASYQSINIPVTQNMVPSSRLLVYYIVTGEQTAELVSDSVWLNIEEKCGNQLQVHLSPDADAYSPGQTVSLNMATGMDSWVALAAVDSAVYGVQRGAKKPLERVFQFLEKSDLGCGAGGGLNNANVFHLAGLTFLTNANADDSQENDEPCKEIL
Chain of human complement protein C5 (P01031 678-1676 limits assumed, chain 2 of 2): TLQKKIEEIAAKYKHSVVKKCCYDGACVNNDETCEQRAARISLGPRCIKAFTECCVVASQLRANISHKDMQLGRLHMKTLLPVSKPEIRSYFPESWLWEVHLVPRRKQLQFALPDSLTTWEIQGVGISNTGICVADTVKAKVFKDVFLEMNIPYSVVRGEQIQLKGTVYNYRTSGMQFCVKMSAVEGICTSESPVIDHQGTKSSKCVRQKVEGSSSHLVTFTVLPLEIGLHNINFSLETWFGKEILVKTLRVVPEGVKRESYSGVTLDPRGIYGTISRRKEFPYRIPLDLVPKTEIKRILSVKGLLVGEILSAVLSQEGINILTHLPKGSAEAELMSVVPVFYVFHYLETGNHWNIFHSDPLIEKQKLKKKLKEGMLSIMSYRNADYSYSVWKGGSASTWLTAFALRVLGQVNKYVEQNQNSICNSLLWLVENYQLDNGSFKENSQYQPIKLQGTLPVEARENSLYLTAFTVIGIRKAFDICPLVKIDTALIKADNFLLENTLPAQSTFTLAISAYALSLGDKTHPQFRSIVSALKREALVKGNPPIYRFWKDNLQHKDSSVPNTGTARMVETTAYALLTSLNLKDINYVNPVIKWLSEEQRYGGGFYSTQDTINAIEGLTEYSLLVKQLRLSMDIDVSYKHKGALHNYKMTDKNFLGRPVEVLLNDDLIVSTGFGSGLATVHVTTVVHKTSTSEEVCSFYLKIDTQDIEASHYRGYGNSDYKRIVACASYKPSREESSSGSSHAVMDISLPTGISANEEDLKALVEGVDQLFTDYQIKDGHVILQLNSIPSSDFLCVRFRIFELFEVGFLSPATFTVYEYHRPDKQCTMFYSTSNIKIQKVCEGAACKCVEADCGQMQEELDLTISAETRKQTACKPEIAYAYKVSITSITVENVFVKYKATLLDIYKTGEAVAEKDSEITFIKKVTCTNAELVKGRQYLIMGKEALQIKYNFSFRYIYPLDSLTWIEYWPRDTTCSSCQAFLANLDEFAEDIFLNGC

B1: MoC601 HuG4K (chimeric C601 antibody) (antibody, human IgG4 S228P, kappa, V domains shown)
VH: QVQLQQSGAELVKPGASVKISCKASGYAFSDYWMNWVKQRPGKGLEWIGQIYPGDDDTNYNGKFKGKATLTADKSSSTAYMQLSSLTSEDSAVYFCAREGYYGYTYVEYFDVWGTGTTVTVSS
VL: QIVLTQSPAIMSVSPGEKVTLTCSASSSVSYMHWYQQKSGTSPKRWIYDTSKLASGVPARFSGSGSGTSYSLTISSMEAEDAATYYCQQWTSNPLTFGAGTKLELRR
notes: also called chimeric antibody; chimeric 1C9
Broadly, the Kd is the concentration at which binding is half-saturated. The low end stands for tighter binding, the high end for weaker binding. As usually defined, the koff is a measure of how fast the partners let go of each other. The low end stands for a long-lived complex, the high end for a short-lived complex. For orientation: kon means a measure of how fast the partners come together. A higher kon goes with fast association. In general, EC50 refers to the concentration needed to bring the measured effect to its halfway point. Turning to B1, the Kd in test [1] worked out at 0.459 nM; in test [5], 0.527 nM; in test [6], 0.527 nM; in [7], 0.527 nM. The koff in test [1] stood at 0.000413 s⁻¹; in test [5], 0.000448 s⁻¹. Further, the kon is 900000 M⁻¹ s⁻¹ in test [1] and 850000 M⁻¹ s⁻¹ in test [5]. Besides, the EC50 in test [2] turned out to be 0.2 nM; in test [4], 0.27 nM; in test [8] it was 0.19 nM. Further, the binding result in [3] is “no binding”.

B2: C601HFKC4 HuG4K (antibody, human IgG4 S228P, kappa)
heavy: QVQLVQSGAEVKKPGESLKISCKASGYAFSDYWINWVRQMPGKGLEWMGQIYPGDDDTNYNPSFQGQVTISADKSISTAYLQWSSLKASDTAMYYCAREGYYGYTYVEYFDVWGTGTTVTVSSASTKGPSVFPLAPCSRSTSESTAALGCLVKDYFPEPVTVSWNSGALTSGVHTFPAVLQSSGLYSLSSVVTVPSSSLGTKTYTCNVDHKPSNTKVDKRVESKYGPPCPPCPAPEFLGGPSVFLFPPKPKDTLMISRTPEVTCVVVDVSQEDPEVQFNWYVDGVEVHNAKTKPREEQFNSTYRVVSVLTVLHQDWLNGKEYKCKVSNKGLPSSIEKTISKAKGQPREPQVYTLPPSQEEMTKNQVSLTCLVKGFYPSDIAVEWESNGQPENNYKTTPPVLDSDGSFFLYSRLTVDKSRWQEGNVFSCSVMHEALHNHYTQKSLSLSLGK
light: QIVLTQSPATLSLSPGERATLSCRASSSVSYLHWYQQKPGQSPRLWIYDTSKRATGIPARFSGSGSGTDYTLTISSLEPEDFAVYYCQQWTSNPLTFGQGTKLEIKRTVAAPSVFIFPPSDEQLKSGTASVVCLLNNFYPREAKVQWKVDNALQSGNSQESVTEQDSKDSTYSLSSTLTLSKADYEKHKVYACEVTHQGLSSPVTKSFNRGEC
notes: also called 3713; clone 3713
In the case of B2, the Kd in [1] was found to be 0.226 nM; in test [5], 0.343 nM; in [6], 0.343 nM; in test [7] it was 0.343 nM. In addition, the off-rate (koff) was determined as 0.000306 s⁻¹ in test [1] and 0.000389 s⁻¹ in test [5]. In addition, the kon stood at 1.36e+06 M⁻¹ s⁻¹ in test [1] and 1.13e+06 M⁻¹ s⁻¹ in test [5]. Moreover, the concentration giving a half-maximal response (EC50) in [2] amounted to 0.19 nM; in [9], 0.15 nM.
